Measured values reported in the supplement of paper PMC10724198.
± gives the standard deviation of the averaged measurements.
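Further: PSI is a weighted mean of sequencing reads over stability bins, variants kept only with over 10 reads, mCherry proximal and sfGFP distal, peptide attached via GGGS linker.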

These sequences were tested on Saccharomyces cerevisiae (assay: protein stability index of tFT-peptide fusion (C-terminal peptide) (PSI (0-1 scale)); higher = more stable (slower turnover)). Settings: genetic background: cdc53-1; temperature: 37 C.
Description: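 MPS profiling in S. cerevisiae of the tFT-X12 degron library: putative degron peptides plus stable controls, 12 aa, fused to the C-terminus of a sfGFP-mCherry timer. Cells are FACS-sorted into 8 mCherry/sfGFP bins and deep-sequenced. PSI runs from 0 (unstable) to 1 (stable). Backgrounds are wild type, das1Δ and doa10Δ at 30 °C, and wild type, das1Δ, cdc34-1 and cdc53-1 at 37 °C; 2-3 technical replicates each.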
With VCVYLVSLPYLA the protein stability index was 0.462 ± 0.025. VDFCLLFLLLLV was tested, and the protein stability index was 0.442 ± 0.0072. For VFCLPISAPPLH, the protein stability index was 0.739 ± 0.022. For VFCMVLPFVLLT, the protein stability index was 0.0906 ± 0.016. For VFFCVLRVFFSA, the protein stability index was 0.161 ± 0.015. VFFIFFFAFLFF showed a protein stability index of 0.289 ± 0.0075. VFFMFVFFPFPG showed a protein stability index of 0.584 ± 0.035. For VFGSRCLLTVVV, the protein stability index was 0.477 ± 0.023. VFGWWSVVLRVA gave a protein stability index of 0.0938 ± 0.009. Work on VFILGFLCLLFF yielded a protein stability index of 0.428 ± 0.014. VFIPFGFCLCFV showed a protein stability index of 0.4114 ± 0.0039. VFLCFSWHFFLF showed a protein stability index of 0.591 ± 0.035. VFLVGFRVTLDS was tested, and the protein stability index was 0.289 ± 0.011. Sequence VFSFWVLCEVSV has a protein stability index of 0.0546 ± 0.015. Work on VFVFTFSLSFYC yielded a protein stability index of 0.326 ± 0.0073. For VFVRDFLVSIVV, the protein stability index was 0.0563 ± 0.0023. VFWVLVSFLFYV gave a protein stability index of 0.406 ± 0.012. Sequence VFWVVFRALVGD has a protein stability index of 0.29497 ± 0.00028. Work on VGAGVFAWLWVA yielded a protein stability index of 0.664 ± 0.016. VGAYSVVYVVFS showed a protein stability index of 0.517 ± 0.011. In the case of VGVLWALIVGVR, the protein stability index is reported as 0.226 ± 0.02. In the case of VGVYVWRGVLWA, the protein stability index is reported as 0.402 ± 0.035. With VHHAFLPYTLVR the protein stability index was 0.57 ± 0.011. In the case of VHNIDLFVVCYI, the protein stability index is reported as 0.443 ± 0.014. In the case of VIAFFSVLKRYV, the protein stability index is reported as 0.704 ± 0.011. For VKSAVLLFFLVT, the protein stability index was 0.483 ± 0.019. In the case of VLFFLVTSSVYF, the protein stability index is reported as 0.263 ± 0.03. VLPCSLVPLRLH was tested, and the protein stability index was 0.704 ± 0.029. VLPLRCSWAAQG was tested, and the protein stability index was 0.7521 ± 0.005. Sequence VMLIRVSRGIKC has a protein stability index of 0.463 ± 0.13. Sequence VMLVISRLLLLF has a protein stability index of 0.523 ± 0.0094. For VPGPSPPRFTQR, the protein stability index was 0.762 ± 0.016. In the case of VPVWHTVKLYCF, the protein stability index is reported as 0.439 ± 0.0077. Sequence VPWSKIAARLII has a protein stability index of 0.706 ± 0.011. VRMMYSVQVWCG gave a protein stability index of 0.138 ± 0.03. VRVWLLACASKG showed a protein stability index of 0.423 ± 0.026. For VSDLYLSLVRVV, the protein stability index was 0.593 ± 0.011. Work on VSGVLRSMVRLQ yielded a protein stability index of 0.7477 ± 0.0057. VSRAVCLWRRLL showed a protein stability index of 0.68 ± 0.061. In the case of VSSFLLPFCLLF, the protein stability index is reported as 0.689 ± 0.029. In the case of VSWSVSALIYLK, the protein stability index is reported as 0.1 ± 0.026. With VTLLCRFFMLVF the protein stability index was 0.5149 ± 0.00071. VVGFVFSCWWSW gave a protein stability index of 0.4646 ± 0.00097. For VVGVLLLYLNPF, the protein stability index was 0.5071 ± 0.0037. With VVLWWWVVARDL the protein stability index was 0.495 ± 0.038. Sequence VVRLRVWRLLKV has a protein stability index of 0.33 ± 0.048. With VVRSIVVYTCVF the protein stability index was 0.365 ± 0.041. Work on VVRVIWCQFSCF yielded a protein stability index of 0.545 ± 0.016. VVTLHISLFYPG gave a protein stability index of 0.511 ± 0.018. VVVRARVFFHIF gave a protein stability index of 0.444 ± 0.015. With VVWLFGVSWCWL the protein stability index was 0.5093 ± 0.0025. With VWACWCGWVLLM the protein stability index was 0.388 ± 0.024. VWLFCLSRLYLL gave a protein stability index of 0.383 ± 0.007. For VYCQRFMLLFTP, the protein stability index was 0.535 ± 0.019. Work on VYGSLPVVVCRI yielded a protein stability index of 0.538 ± 0.013. With VYIVLLLLFLRP the protein stability index was 0.378 ± 0.013. Sequence VYLVLRCGSVLV has a protein stability index of 0.56 ± 0.032. Sequence VYVLVFNMENIS has a protein stability index of 0.588 ± 0.0096. For VYVSRTRPFSLY, the protein stability index was 0.7141 ± 0.0054. WACAWRGMVKVG showed a protein stability index of 0.245 ± 0.0068. WAIVVLVCFLRL showed a protein stability index of 0.299 ± 0.0052. Work on WCCCVSGFVWWM yielded a protein stability index of 0.6296 ± 0.0022. Work on WCGSWGVWMRLG yielded a protein stability index of 0.456 ± 0.015. WEPILLELELCV gave a protein stability index of 0.497 ± 0.026. In the case of WFLLILFSAFAV, the protein stability index is reported as 0.463 ± 0.036. WFSVIMLCYILP showed a protein stability index of 0.22 ± 0.028. WFVCSGVYGSVM showed a protein stability index of 0.749 ± 0.02. Sequence WFVFVFCSPRSS has a protein stability index of 0.618 ± 0.0098. With WGFSVRFVLSVF the protein stability index was 0.145 ± 0.03. With WGVVMVCVVFGL the protein stability index was 0.247 ± 0.016. In the case of WHFMVFFCFCVD, the protein stability index is reported as 0.399 ± 0.061. WILPASFCVVFL showed a protein stability index of 0.5334 ± 0.0024. For WLALSFFSFFFC, the protein stability index was 0.7221 ± 0.00075. For WLFRASSFNWVI, the protein stability index was 0.7359 ± 0.0063. WLFTSVTVFTFL was tested, and the protein stability index was 0.299 ± 0.02. In the case of WLSISNLVIACR, the protein stability index is reported as 0.0619 ± 0.027. For WNSQGVFILAKC, the protein stability index was 0.588 ± 0.032. In the case of WRAFVFYHHFLD, the protein stability index is reported as 0.718 ± 0.028.

Same assay, conditions: genetic background: das1 deletion; temperature: 30 C
VCVYLVSLPYLA was tested, and the protein stability index was 0.39 ± 0.026. With VDFCLLFLLLLV the protein stability index was 0.349 ± 0.034. Work on VFCLPISAPPLH yielded a protein stability index of 0.642 ± 0.023. For VFCMVLPFVLLT, the protein stability index was 0.194 ± 0.024. In the case of VFFCVLRVFFSA, the protein stability index is reported as 0.175 ± 0.024. VFFIFFFAFLFF showed a protein stability index of 0.335 ± 0.052. With VFFMFVFFPFPG the protein stability index was 0.404 ± 0.029. VFGSRCLLTVVV gave a protein stability index of 0.367 ± 0.032. In the case of VFGWWSVVLRVA, the protein stability index is reported as 0.166 ± 0.027. With VFILGFLCLLFF the protein stability index was 0.342 ± 0.017. In the case of VFIPFGFCLCFV, the protein stability index is reported as 0.317 ± 0.019. VFLCFSWHFFLF was tested, and the protein stability index was 0.411 ± 0.037. Work on VFLVGFRVTLDS yielded a protein stability index of 0.219 ± 0.025. Work on VFSFWVLCEVSV yielded a protein stability index of 0.0315 ± 0.0099. VFVFTFSLSFYC was tested, and the protein stability index was 0.25 ± 0.028. Sequence VFVRDFLVSIVV has a protein stability index of 0.174 ± 0.025. Sequence VFWVLVSFLFYV has a protein stability index of 0.307 ± 0.028. With VFWVVFRALVGD the protein stability index was 0.217 ± 0.018. Sequence VGAGVFAWLWVA has a protein stability index of 0.59 ± 0.016. Sequence VGAYSVVYVVFS has a protein stability index of 0.322 ± 0.026. Work on VGVLWALIVGVR yielded a protein stability index of 0.191 ± 0.035. VGVYVWRGVLWA gave a protein stability index of 0.257 ± 0.024. VHHAFLPYTLVR gave a protein stability index of 0.375 ± 0.028. With VHNIDLFVVCYI the protein stability index was 0.251 ± 0.047. Work on VIAFFSVLKRYV yielded a protein stability index of 0.58 ± 0.037. For VKSAVLLFFLVT, the protein stability index was 0.359 ± 0.031. VLFFLVTSSVYF was tested, and the protein stability index was 0.201 ± 0.031. Sequence VLPCSLVPLRLH has a protein stability index of 0.642 ± 0.012. VLPLRCSWAAQG was tested, and the protein stability index was 0.639 ± 0.026. VMLIRVSRGIKC gave a protein stability index of 0.293 ± 0.024. Sequence VMLVISRLLLLF has a protein stability index of 0.455 ± 0.033. VPGPSPPRFTQR showed a protein stability index of 0.6584 ± 0.0019. VPVWHTVKLYCF was tested, and the protein stability index was 0.345 ± 0.038. VPWSKIAARLII showed a protein stability index of 0.618 ± 0.02. VRMMYSVQVWCG was tested, and the protein stability index was 0.0633 ± 0.029. VRVWLLACASKG showed a protein stability index of 0.236 ± 0.0066. VSDLYLSLVRVV showed a protein stability index of 0.46 ± 0.034. VSGVLRSMVRLQ showed a protein stability index of 0.66 ± 0.034. With VSRAVCLWRRLL the protein stability index was 0.618 ± 0.0096. VSSFLLPFCLLF gave a protein stability index of 0.645 ± 0.0076. Work on VSWSVSALIYLK yielded a protein stability index of 0.233 ± 0.039. VTLLCRFFMLVF showed a protein stability index of 0.402 ± 0.025. In the case of VVGFVFSCWWSW, the protein stability index is reported as 0.367 ± 0.039. For VVGVLLLYLNPF, the protein stability index was 0.351 ± 0.025. With VVLWWWVVARDL the protein stability index was 0.402 ± 0.03. For VVRLRVWRLLKV, the protein stability index was 0.253 ± 0.03. Work on VVRSIVVYTCVF yielded a protein stability index of 0.262 ± 0.026. With VVRVIWCQFSCF the protein stability index was 0.414 ± 0.026. VVTLHISLFYPG gave a protein stability index of 0.406 ± 0.031. VVVRARVFFHIF showed a protein stability index of 0.361 ± 0.022. With VVWLFGVSWCWL the protein stability index was 0.355 ± 0.022. For VWACWCGWVLLM, the protein stability index was 0.314 ± 0.027. VWLFCLSRLYLL gave a protein stability index of 0.38 ± 0.03. For VYCQRFMLLFTP, the protein stability index was 0.459 ± 0.03. In the case of VYGSLPVVVCRI, the protein stability index is reported as 0.409 ± 0.023. Sequence VYIVLLLLFLRP has a protein stability index of 0.317 ± 0.031. For VYLVLRCGSVLV, the protein stability index was 0.406 ± 0.021. VYVLVFNMENIS was tested, and the protein stability index was 0.382 ± 0.03. In the case of VYVSRTRPFSLY, the protein stability index is reported as 0.63 ± 0.011. WACAWRGMVKVG showed a protein stability index of 0.232 ± 0.034. Work on WAIVVLVCFLRL yielded a protein stability index of 0.277 ± 0.022. With WCCCVSGFVWWM the protein stability index was 0.491 ± 0.03. In the case of WCGSWGVWMRLG, the protein stability index is reported as 0.534 ± 0.03. In the case of WEPILLELELCV, the protein stability index is reported as 0.395 ± 0.03. WFLLILFSAFAV gave a protein stability index of 0.352 ± 0.022. In the case of WFSVIMLCYILP, the protein stability index is reported as 0.23 ± 0.042. WFVCSGVYGSVM gave a protein stability index of 0.682 ± 0.094. Sequence WFVFVFCSPRSS has a protein stability index of 0.4 ± 0.03. With WGFSVRFVLSVF the protein stability index was 0.124 ± 0.029. In the case of WGVVMVCVVFGL, the protein stability index is reported as 0.186 ± 0.028. WHFMVFFCFCVD gave a protein stability index of 0.317 ± 0.036. WILPASFCVVFL showed a protein stability index of 0.385 ± 0.021. With WLALSFFSFFFC the protein stability index was 0.588 ± 0.025. With WLFRASSFNWVI the protein stability index was 0.689 ± 0.04. Work on WLFTSVTVFTFL yielded a protein stability index of 0.221 ± 0.023. With WLSISNLVIACR the protein stability index was 0.135 ± 0.039. With WNSQGVFILAKC the protein stability index was 0.375 ± 0.026. Work on WRAFVFYHHFLD yielded a protein stability index of 0.655 ± 0.039.
